# Measurements as given in the DeepSol protein solubility set.
# Assay: soluble on expression in E. coli; label from the status in PepcDB or PDB records
row,Sequence,soluble on expression in E. coli
1,PRAAARGGGGDAGTRGRGFVQAGRGAPMAECGRGGAAGGALPTSPGPALGAKGALKAGVGEGGGGGGRLGHGRARYDSGGVSNGDCSLGVSGDEARASPTRGPRGVALAPTPSAVVCTLPRESKPGGLPRRSSIIKDGTKQKRERKKTVSFSSMPTEKKISSASDCINSMVEGSELKKVRSNSRIYHRYFLLDADMQSLRWEPSKKDSEKAKIDIKSIKEVRTGKNTDIFRSNGISDQISEDCAFSVIYGENYESLDLVANSADVANIWVTGLRYLISYGKHTLDMLESSQDNMRTSWVSQMFSEIDVDNLGHITLCNAVQCIRNLNPGLKTSKIELKFKELHKSKDKAGTEVTKEEFIEVFHELCTRPEIYFLLVQFSSNKEFLDTKDLMMFLEAEQGVAHINEEISLEIIHKYEPSKEGQEKGWLSIDGFTNYLMSPDCYIFDPEHKKVCQDMKQPLSHYFINSSHNTYLIEDQFRGPSDITGYIRALKMGCRSVELDVWDGPDNEPVIYTGHTMTSQIVFRSVIDIINKYAFFASEYPLILCLENHCSIKQQKVMVQHMKKLLGDKLYTTSPNVEESYLPSPDVLKGKILIKAKKLSSNCSGVEGDVTDEDEGAEMSQRMGKENMEQPNNVPVKRFQLCKELSELVSICKSVQFKEFQVSFQVQKYWEVCSFNEVLASKYANENPGDFVNYNKRFLARVFPSPMRIDSSNMNPQDFWKCGCQIVAMNFQTPGLMMDLNIGWFRQNGNCGYVLRPAIMREEVSFFSANTKDSVPGVSPQLLHIKIISGQNFPKPKGSGAKGDVVDPYVYVEIHGIPADCAEQRTKTVHQNGDAPIFDESFEFQINLPELAMVRFVVLDDDYIGDEFIGQYTIPFECLQTGYRHVPLQSLTGEVLAHASLFVHVAITNRRGGGKPHKRGLSVRKGKKSREYASLRTLWIKTVDEVFKNAQPPIRDATDLRENMQNAVVSFKELCGLSSVANLMQCMLAVSPRFLGPDNTPLVVLNLSEQYPTMELQGIVPEVLKKIVTTYDMMIQSLKALIENADAVYEKIVHCQKAAMEFHEHLHSIGTKEGLKERKLQKAVESFTWNITILKGQADLLKYAKNETLENLKQIHFAAVSCGLNKPGTENADVQKPRRSLEVIPEKANDETGE,soluble
2,PVERMRMRPWLEEQINSNTIPGLKWLNKEKKIFQIPWMHAARHGWDVEKDAPLFRNWAIHTGKHQPGIDKPDPKTWKANFRCAMNSLPDIEEVKDRSIKKGNNAFRVYRMLP,soluble
3,PVTETVDGQGQAWRHHNGFDFAVIKELKTAASQYGATAPYTLAIVESVADNWLTPTDWNTLVRAVLSGGDHLLWKSEFFENCRDTAKRNQQAGNGWDFDMLTGSGNYSSTDAQMQYDPGLFAQIQAAATKAWRKLPVKGD,soluble
4,PYSYDLIFGDVNTTNFYAQFAKKHNTHMWSKIQSTQNGEIGFHKNSKTGQQRH,soluble
5,QALASDSEEADEVPEWLREGEFVTVGAHKTGVVRYVGPADFQEGTWVGVELDLPSGKNDGSIGGKQYFRCNPGYGLLVRPSRVRRAT,soluble
6,QAMLIGEIMDLNLKNFLEDREEIIRDAKRKDEKSFKDFKKIVEEIKERENKDKIVCDFTEYNPLHKGHKYALEKGKEHGIFISVLPGPLERSGRGIPYFLNRYIRAEMAIRAGADIVVEGPPMGIMGSGQYMRCLIKMFYSLGAEIIPRGYIPEKTMEKVIDCINKGYHIQVKPYKIICIETGEILGEKLNIDNYVIASMSQMIYKLNREGLKFNPKFVFVKRLEGISGTKIREAIFSGKFEDIKNMLPKTTLSILKELYDNGKLNELILKRFEDRILETANEYDLYEYLPSNVAEILEKKRPFNNIEEIKNSLPYGFSRHFRERILSKLEARIPNETLSKYINNYPAKIKILAVKL,soluble
7,QAPGWLKEMRGEHAPETEEYGIASTAYRARRPFHPQRFFDLINRPWTNGKLLRSKGFFWLASKYKDAGSWSQAGGLMRHGFAGRWWRFVTRDSWPQDKESVASILENWSSETGDCRQELVFIGQNIDFTLLTAELDNCLLTDDEMAAGAERWRQLSDPFGEWYEDEVAA,not soluble
8,QCSSEVTARYKATLLKGNSLTDLTGGFGIDCAFLAARFKSATYVERQQELCEIAAHNFPILNLNHINVKNEDGVSYLQAMSPVDCIFLDPARRNEHGGKTVAISDCEPDVAELEELLLNKAEQVMVKLSPM,not soluble
9,QDFAEIYARFSDERANEQANRCSQCGVPFCQVHCPVSNNIPDWLKLTSEGRLEEAYEVSQATNNFPEICGRICPQDRLCEGNCVIEQSTHGAVTIGSVEKYINDTAWDQGWVKPRTPSRELGLSVGVIGAGPAGLAAAEELRAKGYEVHVYDRYDRMGGLLVYGIPGFKLEKSVVERRVKLLADAGVIYHPNFEVGRDASLPELRRKHVAVLVATGVYKARDIKAPGSGLGNIVAALDYLTTSNKVSLGDTVEAYENGSLNAAGKHVVVLGGGDTAMDCVRTAIRQGATSVKCLYRRDRKNMPGSQREVAHAEEEGVEFIWQAAPEGFTGDTVVTGVRAVRIHLGVADATGRQTPQVIEGSEFTVQADLVIKALGFEPEDLPNAFDEPELKVTRWGTLLVDHRTKMTNMDGVFAAGDIVRGASLVVWAIRDGRDAAEGIHAYAKAKAEAPVAVAAE,soluble
10,QDLARIEQFLDALWLEKNLAENTLNAYRRDLSMMVEWLHHRGLTLATAQSDDLQALLAERLEGGYKATSSARLLSAVRRLFQYLYREKFREDDPSAHLASPKLPQRLPKDLSEAQVERLLQAPLIDQPLELRDKAMLEVLYATGLRVSELVGLTMSDISLRQGVVRVIGKGNKERLVPLGEEAVYWLETYLEHGRPWLLNGVSIDVLFPSQRAQQMTRQTFWHRIKHYAVLAGIDSEKLSPHVLRHAFATHLLNHGADLRVVQMLLGHSDLSTTQIYTHVATERLRQLHQ,soluble
11,QDSTSDLIPAPPLSKVPLQQNFQDNQFHGKWYQVGRAGNAALREDKDPQKMTAQIYELKEDKSYNVTAVRFRKKKCDYATMTFVPGSQPGEFTLGNIKSYPGLTSYLVRVVSTNYNQHAMVFFKKVSQNREYFSITLLGRTKELASELKENFIRFSKSLGLPENHIVFPVPIDQCIDGSAHHHHHH,soluble
12,QEDVTVKSVTLITKVFPEGEKVCAVVIEYPVEIDGQKLSPDQFSVKVKTGDTYSSRTITKVYANNSGGLSFSIFNNRGKYVVLELSTEDLHSNTIVFGPNFLNTRMKLDYIVSQLVPIFDVDGNEVEPFTSKQTDEKHLIIDDFLAFTFKDPETGVEIPYRLFVPKDVNPDRKYPLVVFLHGAGERGTDNYLQVAGNRGAVVWAQPRYQVVHPCFVLAPQCPPNSSWSTLFTDRENPFNPEKPLLAVIKIIRKLLDEYNIDENRIYITGLSMGGYGTWTAIMEFPELFAAAIPICGGGDVSKVERIKDIPIWVFHAEDDPVVPVENSRVLVKKLAEIGGKVRYTEYEKGFMEKHGWDPHGSWIPTYENQEAIEWLFEQSR,soluble
13,QEQLVESGGRLVTPGTALTLTCKVSGFSLSGFWLNWVRQAPGKGLEWVGAIYRGSGSEWYASWAKGRFTISDTSTTVTLKLTSPTTEDTATYFCAADTTDNGYFTIWGPGTLVTVSSASTKGPSVFPLAPSAKSTSGGTAALGCLVKDYFPEPVTVSWNSGALTSGVHTFPAVLQSSGLYSLSSVVTVPSSSLGTQTYICNVNHKPSNTKVDKKAEPKSCDKTRGHHHHHH,soluble
14,QFWDLNAKLVDIPTKMRVERWAFNFSELIRDPKGRQSFQHFLRKEFSGENLGFWEACEDLKYGDQSKVKEKAEEIYKLFLAPGARRWINIDGKTMDITVKGLKHPHRYVLDAAQTHIYMLMKKDSYARYLKSPIYKEMLAKAIEPQG,soluble
15,QGMNNPADAGINLNYLANVRPSSRQLAWQRMEMYAFLHFGMNTMTDREWGLGHEDPALFNPRNVDVDQWMDALVAGGMAGVILTCKHHDGFCLWPSRLTRHTVASSPWREGKGDLVREVSESARRHGLKFGVYLSPWDRTEESYGKGKAYDDFYVGQLTELLTQYGPIFSVWLDGANGEGKNGKTQYYDWDRYYNVIRSLQPDAVISVCGPDVRWAGNEAGHVRDNEWSVVPRRLRSAELTMEKSQQEDDASFATTVSSQDDDLGSREAVAGYGDNVCWYPAEVDTSIRPGWFYHQSEDDKVMSADQLFDLWLSAVGGNSSLLLNIPPSPEGLLAEPDVQSLKGLGRRVSEFREALASVRCEARTSSASAAAAHLVDGNRDTFWRPDADDAAPAITLTLPQPTTINAIVIEEAIEHGQRIEHLRVTGALPDGTERVLGQAGTVGYRRILRFDDVEVSSVTLHVDGSRLAPMISRAAAVRI,soluble
16,QILVVRGQVIFPFVPFSLDVGRPRSRKIIKALKTLKTKRLVLVTQKFTGEQNPEFNDIYHVGTLCEIDEIVDVPGVDSKTVDYRIKGRGLQRVLIEKFSDADINEVSYQLLNSTVKDEANVDRFLQRIFPEKEEIEQLMEGAEKFLELENISKTVNVPKGLKQLDIITFKLANLVPNTESIKQAILEENEIANRLEKIIQA,soluble
17,QKKIADRLMKFEEQLPEALDIIKRVLQAGQPITQAFGEVGREVSAPLGPEFLNTFNLLNYGYDLRLAIMQMSERTPTVSMLAFSSAVLLQKETGGNLVENIEKLSHILRARFKLARKIKTISAESRMS,not soluble
18,QLSPDIYAKSCPNLVQIVRKQVAIALKAEIRMAASLIRLHFHDCFVNGCDASLLLDGADSEKLAIPNINSARGFEVIDTIKAAVENACPGVVSCADILTLAARDSVVLSGGPGWRVALGRKDGLVANQNSANNLPSPFEPLDAIIAKFVAVNLNITDVVALSGAHTFGQAKCAVFSNRLFNFTGAGNPDATLETSLLSNLQTVCPLGGNSNITAPLDRSTTDTFDNNYFKNLLEGKGLLSSDQILFSSDLAVNTTKKLVEAYSRSQSLFFRDFTCAMIRMGNISNGASGEVRTNCRVINN,soluble
19,QMAGIYQALANDGQRIEPRIIEKVVDSSGNEVEQQPPAETRVVSAQTARTVVDMFRGVVQKDPTGINSGTGAGAAVDGYQVSGKTGTAQQVDPNTGAYSNSNYWITFAGIAPADNPRFVVALMLDKPHRGVHGEGGQSAAPLFHDIASWILDRDNVPLSPPMEGQLVLQAQ,not soluble
20,QMPQPLAYAQALLAQFASLARAVNGAQLLGDFVRSLAELSGCELSQLYLLDATHKCLKMRAECLDGTLQPREAASLPVDYNGEQLLQFALCQNRVVCLGELSGSLHETSFLPTQSTPWQSLLCVPVVNHQQAVEGLLLCASRRHVDLQGFADSLGQFGSFALGQLNLLQRLHKPADEVRPAGITMPSVSGYG,not soluble
21,QQLSMELESARAFNASVLANVAEGILVVDEAGNISFANPAICQLLNASVDQLRGTQVLDYVIEPQVSSWLESGFYQHYRKADTYRVHDAILRTAQGSQLPVALSCAALPAEQKAMVLTVLDMS,not soluble
22,QRHQKNQNQQRIQALLEESQRRLKQMINKTHVGLLLINEQGQLFDLNPMAKRLFCLPENVNRQTFAWELFDAGNPNSTTLTLLRDLPKHKELAEISAVETMARRSDGSVFPVLFSLTTFPWHGELYFLATLIDISKRKKAEQSLQLINQELAQRVEERTQALRQAQEQLIESSKMAALGRMSSAITHELNQPLTGLRTLLTTNELLAERGETAMMKANNVLVQKLIDRMASMTSQLKTFAYNKPEKLQALSLTSALEETLRVYQSQLANVDVRVRIPSDLPQIQGEEQRLQQVLGNLISNALDAMQSRDNPQLSIVVTPTNSHVEVVVSDNGCGVALEQLDTIFEPFQTSKKIGEGLGLGLSITANNMRDMNGQVTAKRNPGSGMSFLLRFQLANTID,not soluble
